Assay results from article PMC2796264.

Target: 26S proteasome purified from rabbit muscle (rabbit (endogenous in muscle))

Substance: polyubiquitinated E6AP (from UniProt P0CG47 1-76)
- hydrolysis of suc-GGL-amc by rabbit 26S proteasomes with ubiquitinated E6AP: < 4 fold
